Laboratory results reported in article PMC4701049 (Biochemistry, 2015).

B1: Pseudomonas putida WCS358 PupR cytoplasmic anti-sigma domain (PupR-ASD), wild type (domain or fragment)
chain: GAMGMNGQGATSIPGEVAEQAMHWHLELQEPAVSAATLAACMSWRQAHPLHEHAWQRTQVFAQRLREMRSPGQRPLAHAALRPQQS
B2: PupR-ASD M38D (domain or fragment, Pseudomonas putida WCS358)
chain: GAMGMNGQGATSIPGEVAEQAMHWHLELQEPAVSAATLAACDSWRQAHPLHEHAWQRTQVFAQRLREMRSPGQRPLAHAALRPQQS
B3: PupR-ASD L61D (domain or fragment, Pseudomonas putida WCS358)
chain: GAMGMNGQGATSIPGEVAEQAMHWHLELQEPAVSAATLAACMSWRQAHPLHEHAWQRTQVFAQRDREMRSPGQRPLAHAALRPQQS
B4: PupR-ASD L22D (domain or fragment, Pseudomonas putida WCS358)
chain: GAMGMNGQGATSIPGEVAEQAMHWHDELQEPAVSAATLAACMSWRQAHPLHEHAWQRTQVFAQRLREMRSPGQRPLAHAALRPQQS
B5: PupR-ASD A35D (domain or fragment, Pseudomonas putida WCS358)
chain: GAMGMNGQGATSIPGEVAEQAMHWHLELQEPAVSAATLDACMSWRQAHPLHEHAWQRTQVFAQRLREMRSPGQRPLAHAALRPQQS
B6: PupR-ASD M18D (domain or fragment, Pseudomonas putida WCS358)
chain: GAMGMNGQGATSIPGEVAEQADHWHLELQEPAVSAATLAACMSWRQAHPLHEHAWQRTQVFAQRLREMRSPGQRPLAHAALRPQQS
B7: PupR-ASD F57D (domain or fragment, Pseudomonas putida WCS358)
chain: GAMGMNGQGATSIPGEVAEQAMHWHLELQEPAVSAATLAACMSWRQAHPLHEHAWQRTQVDAQRLREMRSPGQRPLAHAALRPQQS
B8: PupR-ASD Q42D (domain or fragment, Pseudomonas putida WCS358)
chain: GAMGMNGQGATSIPGEVAEQAMHWHLELQEPAVSAATLAACMSWRDAHPLHEHAWQRTQVFAQRLREMRSPGQRPLAHAALRPQQS
B9: PupR-ASD R53D (domain or fragment, Pseudomonas putida WCS358)
chain: GAMGMNGQGATSIPGEVAEQAMHWHLELQEPAVSAATLAACMSWRQAHPLHEHAWQDTQVFAQRLREMRSPGQRPLAHAALRPQQS

Biological target: the molecule itself
Assay: SEC

For B1, the “stoichiometry N” value was 2.

Biological target: the molecule itself
Assay: AUC

Point of comparison: B9, Kd 562 µM. Against it:
- B1 — 55-fold lower, 10.2 µM
- B2 — 48-fold lower, 11.6 µM
- B3 — not separable, > 500 µM
- B4 — not separable, > 200 µM
- B5 — 42-fold lower, 13.5 µM
- B6 — 2.5-fold lower, 226 µM
- B7 — not separable, > 200 µM
- B8 — 31-fold lower, 18.2 µM
